This note sets out measurements from patent publication EP2488198B1 (Rutgers, the State University of New Jersey, dated 2016).

This assay has as its target T1, leukocyte function antigen-1 (LFA-1), composed of CD11a and CD18, on the surface of white blood cells (human, UniProt P20701 26-1170; P05107 23-769).
T1 construct: whole, on cells; also called CD11a/CD18; wild type form of the receptor
The assay is described as follows: flow cytometry, THP-1 cells mixed with LtxA-FITC for 30 min at 0 C. Background: Flow cytometry measures light scatter and fluorescence of single cells or particles in a stream.

T1 sequence (P20701 26-1170, chain 1 of 2): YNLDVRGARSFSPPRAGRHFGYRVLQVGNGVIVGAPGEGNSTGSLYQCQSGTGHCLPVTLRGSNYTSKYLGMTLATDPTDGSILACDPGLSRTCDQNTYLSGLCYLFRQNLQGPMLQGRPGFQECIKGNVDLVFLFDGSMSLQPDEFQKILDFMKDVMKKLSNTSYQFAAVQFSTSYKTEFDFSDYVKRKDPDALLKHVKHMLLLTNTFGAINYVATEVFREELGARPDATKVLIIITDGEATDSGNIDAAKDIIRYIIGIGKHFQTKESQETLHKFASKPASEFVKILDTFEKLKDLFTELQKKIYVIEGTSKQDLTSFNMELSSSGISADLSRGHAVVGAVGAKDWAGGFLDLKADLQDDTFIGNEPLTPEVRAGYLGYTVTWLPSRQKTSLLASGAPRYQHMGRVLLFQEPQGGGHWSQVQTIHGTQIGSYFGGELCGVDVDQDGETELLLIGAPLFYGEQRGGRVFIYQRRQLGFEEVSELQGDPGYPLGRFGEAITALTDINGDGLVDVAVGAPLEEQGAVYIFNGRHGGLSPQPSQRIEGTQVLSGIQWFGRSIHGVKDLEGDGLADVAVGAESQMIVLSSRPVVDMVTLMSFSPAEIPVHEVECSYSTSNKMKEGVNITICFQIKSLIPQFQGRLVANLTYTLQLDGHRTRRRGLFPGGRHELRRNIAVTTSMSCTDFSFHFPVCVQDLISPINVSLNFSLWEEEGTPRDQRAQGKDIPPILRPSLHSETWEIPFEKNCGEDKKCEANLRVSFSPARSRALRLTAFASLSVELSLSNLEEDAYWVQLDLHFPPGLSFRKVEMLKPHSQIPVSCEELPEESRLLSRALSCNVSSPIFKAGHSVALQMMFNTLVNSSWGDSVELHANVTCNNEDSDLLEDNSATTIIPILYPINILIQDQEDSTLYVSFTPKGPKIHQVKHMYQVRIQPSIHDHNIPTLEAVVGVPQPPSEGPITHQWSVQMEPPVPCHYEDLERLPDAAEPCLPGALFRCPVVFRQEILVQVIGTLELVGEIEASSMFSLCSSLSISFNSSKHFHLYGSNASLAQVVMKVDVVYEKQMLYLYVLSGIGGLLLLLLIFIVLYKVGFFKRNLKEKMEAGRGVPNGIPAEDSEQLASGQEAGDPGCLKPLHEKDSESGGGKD
T1 sequence (P05107 23-769, chain 2 of 2): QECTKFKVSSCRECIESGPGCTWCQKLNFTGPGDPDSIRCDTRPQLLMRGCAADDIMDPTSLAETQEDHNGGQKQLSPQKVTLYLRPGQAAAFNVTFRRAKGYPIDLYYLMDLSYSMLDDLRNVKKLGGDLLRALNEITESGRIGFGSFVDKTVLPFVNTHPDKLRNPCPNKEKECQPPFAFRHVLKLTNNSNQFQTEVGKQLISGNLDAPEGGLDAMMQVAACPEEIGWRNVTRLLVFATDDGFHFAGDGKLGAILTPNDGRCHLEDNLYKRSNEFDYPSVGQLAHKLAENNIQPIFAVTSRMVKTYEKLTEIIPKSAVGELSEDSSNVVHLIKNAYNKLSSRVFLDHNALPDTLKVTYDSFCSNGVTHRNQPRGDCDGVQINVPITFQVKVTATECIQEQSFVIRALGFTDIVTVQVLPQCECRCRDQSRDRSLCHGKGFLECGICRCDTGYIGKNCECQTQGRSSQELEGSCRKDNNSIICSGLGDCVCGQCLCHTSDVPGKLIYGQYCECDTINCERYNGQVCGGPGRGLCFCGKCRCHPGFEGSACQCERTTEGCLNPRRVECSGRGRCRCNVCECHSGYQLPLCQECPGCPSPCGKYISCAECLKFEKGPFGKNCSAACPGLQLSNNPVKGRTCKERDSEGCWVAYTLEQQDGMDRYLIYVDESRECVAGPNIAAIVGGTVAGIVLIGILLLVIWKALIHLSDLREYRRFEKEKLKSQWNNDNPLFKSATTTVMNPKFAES

B1: LtxA covalently labeled with fluorescein isothiocyanate (LtxA-FITC) (other)
chain: MATTSLLNTKQQAAQFANSVADRAKENIDAAKEQLQKALDKLGKTGKKLTLYIKNYKKGNGLTALIKAAQKLGIEVYHEGKDGPALTNGILNTGKKLLGLTERGLTLFAPELDKWIQGNKHLSNSVGSTGNLTKAIDKVQSVLGTLQAFLNTAFSGMDLDALIKARQNGKNVTDVQLAKASLNLINELIGTISSITNNVDTFSKQLNKLGEALGQVKHFGSFGDKLKNLPKLGNLGKGLGALSGVLSAISAALLLANKDADTATKAAAAAELTNKVLGNIGKAITQYLIAQRAAAGLSTTGPVAGLIASVVSLAISPLSFLGIAKQFDRARMLEEYSKRFKKFGYNGDSLLGQFYKNTGIADAAITTINTVLSAIAAGVGAASAGSLVGAPIGLLVSAITSLISGILDASKQAVFEHIANQLADKIKAWENKYGKNYFENGYDARHSAFLEDSLKLFNELREKYKTENILSITQQGWDQRIGELAGITRNGDRIQSGKAYVDYLKKGEELAKHSDKFTKQILDPIKGNIDLSGIKGSTTLTFLNPLLTAGKEERKTRQSGKYEFITELKVKGRTDWKVKGVPNSNGVYDFSNLIQHAVTRDNKVLEARLIANLGAKDDYVFVGSGSTIVNAGDGYDVVDYSKGRTGALTIDGRNATKAGQYKVERDLSGTQVLQETVSKQETKRGKVTDLLEYRNYKLDYYYTNKGFKAHDELNSVEEIIGSTLRDKFYGSKFNDVFHGHDGDDLIYGYDGDDRLYGDNGNDEIHGGQGNDKLYGGAGNDRLFGEYGNNYLDGGEGDDHLEGGNGSDILRGGSGNDKLFGNQGDDLLDGGEGDDQLAGGEGNDIYVYRKEYGHHTITEHSGDKDKLSLANINLKDVSFERNGNDLLLKTNNRTAVTFKGWFSKPNSSAGLDEYQRKLLEYAPEKDRARLKRQFELQRGKVDKSLNNKVEEIIGKDGERITSQDIDNLFDKSGNKKTISPQELAGLIKNKGKSSSLMSSSRSSSMLTQKSGLSNDISRIISATSGFGSSGKALSASPLQTNNNFNSYANSLATTAA
modifications: covalently labeled with fluorescein isothiocyanate (FITC); sites not stated
notes: also called leukotoxin-FITC
With B1, the binding result was “binds”.
